Measured values published in patent US20090075270A1.

T1: Kis antitoxin of the parD locus of E. coli plasmid R1 (wild type), P13975
T1 chain: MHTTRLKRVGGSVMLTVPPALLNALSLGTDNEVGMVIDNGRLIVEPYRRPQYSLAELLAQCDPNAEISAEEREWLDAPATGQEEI


Key:
[1] = target: Kid toxin (endoribonuclease) of the parD locus of E. coli plasmid R1 (Escherichia coli plasmid R1) (UniProt P13976); assay: cell-based or functional assay
[2] = target: T1, Kis antitoxin of the parD locus of E. …

| Molecule | repA/copB ratio by Real Time-PCR, kis17kid sample against kiskid sample [1] | cleavage of dnaB mRNA in vitro by purified Kid (4 pmols), alone or with Kis (6 pmols); primer extension [2] |
| --- | --- | --- |
| Kis17, thermo-sensitive mutant Kis antitoxin (P18L) (from UniProt P13975 1-85) | 38% |  |
| Kid toxin (endoribonuclease) of the parD locus of E. coli plasmid R1 (protein) MERGEIWLVSLDPTAGHEQQGTRPVLIVTPAAFNRVTRLPVVVPVTSGGNFARTAGFAVSLDGVGIRTTGVVRCDQPRTIDMKARGGKRLERVPETIMNEVLGRLSTILT |  | dnaB-mRNA is cleaved by Kid in vitro, and that this effect is inhibited when Kis is added to the reaction |
